In one data set the target is UP1 R82A (human, UniProt P09651 1-196, R82A). In words: ITC; ITC: 20 mM Tris-HCl pH 7.5, 150 mM NaCl, 20 C; protein 160 uM in syringe, RNA 10 uM in cell. The note with it: protein: recombinant; tags: C-terminal His6; single strand; crystal has 2 antiparallel strands. For orientation: ITC needs no label: the signal is the heat of the interaction.
The next data set concerns the target UP1 R82A/K113A (human, UniProt P09651 1-196, R82A;K113A). The data set is described as above. Particulars: protein: recombinant, tags: C-terminal His6, single strand.
The target in the next data set is UP1 V90A/R92A/S95A (human, UniProt P09651 1-196, V90A;R92A;S95A). The description is as above. Particulars: protein: recombinant; tags: C-terminal His6; single strand; crystal has 2 antiparallel strands.
UP1 V90A/R92A/S95A, sequence (P09651 1-196 V90A/R92A/S95A): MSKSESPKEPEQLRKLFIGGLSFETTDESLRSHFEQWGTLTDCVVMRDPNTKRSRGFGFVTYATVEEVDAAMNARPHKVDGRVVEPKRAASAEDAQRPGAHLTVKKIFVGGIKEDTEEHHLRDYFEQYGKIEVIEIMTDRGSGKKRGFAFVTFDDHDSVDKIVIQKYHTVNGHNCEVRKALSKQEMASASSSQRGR
For another data set, the target named is UP1 R55A (human, UniProt P09651 1-196, R55A). The data set is described as above. The note with it: protein: recombinant; tags: C-terminal His6; single strand; crystal has 2 antiparallel strands.
UP1 R55A, sequence (P09651 1-196 R55A): as the sequence (P09651 1-196 V90A/R92A/S95A) above, with R55A, A90V, A92R, A95S counted along it
A further data set has as its target UP1 R146A (human, UniProt P09651 1-196, R146A). The description is as above. The note with it: protein: recombinant; tags: C-terminal His6; single strand; crystal has 2 antiparallel strands.
Another data set concerns the target UP1 K113A (human, UniProt P09651 1-196, K113A). The data set is described as above. Particulars: protein: recombinant; tags: C-terminal His6; single strand; crystal has 2 antiparallel strands.
The next data set has as its target UP1 wt (human, UniProt P09651 1-196). Described as above. The note with it: protein: recombinant, tags: C-terminal His6, chain copies: 2, single strand.
A further data set has as its target UP1 Q12A/G147A (human, UniProt P09651 1-196, Q12A;G147A). The description is as above. The note with it: protein: recombinant, tags: C-terminal His6, single strand.
The next data set deals with UP1 D42R (human, UniProt P09651 1-196, D42R). The description is as above. The note with it: protein: recombinant; tags: C-terminal His6; single strand; crystal has 2 antiparallel strands.
UP1 D42R, sequence (P09651 1-196 D42R): as the sequence (P09651 1-196 V90A/R92A/S95A) above, with D42R, A90V, A92R, A95S counted along it
The target in data set [1] is T1, UP1 D42R/R146A (human, UniProt P09651 1-196, D42R;R146A). Briefly: ITC; text: could not bind RNA at all (conflicts with table); ITC: 20 mM Tris-HCl pH 7.5, 150 mM NaCl, 20 C; protein 160 uM in syringe, RNA 10 uM in cell. The note with it: protein: recombinant; tags: C-terminal His6; single strand; crystal has 2 antiparallel strands.
T1 sequence (P09651 1-196 D42R/R146A): as the sequence (P09651 1-196 V90A/R92A/S95A) above, with D42R, A90V, A92R, A95S, R146A counted along it
Data set [2] addresses T1, UP1 D42R/R146A. In words: ITC; ITC: 20 mM Tris-HCl pH 7.5, 150 mM NaCl, 20 C; protein 160 uM in syringe, RNA 10 uM in cell. Particulars: protein: recombinant; tags: C-terminal His6; single strand.
The mark [3] stands for this setting: crystal has 2 antiparallel strands.

UP1 wt, sequence (P09651 1-196): as the sequence (P09651 1-196 V90A/R92A/S95A) above, with A90V, A92R, A95S counted along it
UP1 Q12A/G147A, sequence (P09651 1-196 Q12A/G147A): as the sequence (P09651 1-196 V90A/R92A/S95A) above, with Q12A, A90V, A92R, A95S, G147A counted along it
UP1 R82A/K113A, sequence (P09651 1-196 R82A/K113A): as the sequence (P09651 1-196 V90A/R92A/S95A) above, with R82A, A90V, A92R, A95S, K113A counted along it
UP1 K113A, sequence (P09651 1-196 K113A): as the sequence (P09651 1-196 V90A/R92A/S95A) above, with A90V, A92R, A95S, K113A counted along it
UP1 R146A, sequence (P09651 1-196 R146A): as the sequence (P09651 1-196 V90A/R92A/S95A) above, with A90V, A92R, A95S, R146A counted along it
UP1 R82A, sequence (P09651 1-196 R82A): as the sequence (P09651 1-196 V90A/R92A/S95A) above, with R82A, A90V, A92R, A95S counted along it

Turning to UUAGGGUUAGGG (ssRNA) [TERRA (UUAGGG)2], the Kd in the data set with UP1 R82A was 460 ± 70 nM; with UP1 R82A/K113A (setting [3]) it was 770 ± 160 nM; in the data set with UP1 V90A/R92A/S95A it was 1410 ± 120 nM; in the data set with UP1 R55A, 520 ± 40 nM; in the data set with UP1 R146A, 2120 ± 500 nM; with UP1 K113A, 300 ± 20 nM. For the same molecule, the Kd with UP1 wt (setting [3]) is 270 ± 20 nM; with UP1 Q12A/G147A (setting [3]), 120 ± 20 nM; in the data set with UP1 D42R, 630 ± 120 nM; with UP1 D42R/R146A [1] it was 2260 ± 310 nM.

Regarding TTAGGGTTAGGG (ssDNA) [Telo DNA (TTAGGG)2], the Kd is 100 ± 30 nM with UP1 R82A/K113A, 80 ± 20 nM with UP1 wt, 4030 ± 1020 nM in the data set with UP1 D42R/R146A [2] and 210 ± 80 nM with UP1 Q12A/G147A.

The Kd is the equilibrium constant for the complex coming apart.

Values taken from paper PMC12019227, “Phase separation of hnRNPA1 and TERRA regulates telomeric stability”.
